Data: US20200299380A1 (published 2020)

T1: MICA*001-BirA (human, UniProt Q29983 24-297)
T1 construct: also called MICA-BirA; MICA*01-BirA; not shown: BirA tag
T1 sequence: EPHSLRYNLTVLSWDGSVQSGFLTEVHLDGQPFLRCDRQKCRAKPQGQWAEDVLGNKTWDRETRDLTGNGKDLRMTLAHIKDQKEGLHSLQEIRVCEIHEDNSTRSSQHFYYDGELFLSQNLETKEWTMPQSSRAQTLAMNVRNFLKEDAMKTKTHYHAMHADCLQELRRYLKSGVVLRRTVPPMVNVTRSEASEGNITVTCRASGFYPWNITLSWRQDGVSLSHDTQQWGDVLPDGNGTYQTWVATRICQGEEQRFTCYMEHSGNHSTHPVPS

T2: MICB-Fc (R&D Systems 1599-MB) (human, UniProt Q29980 23-298, limits assumed)
T2 construct: Bought; also called human MICB-Fc; not shown: Fc of the bought fusion protein
T2 sequence: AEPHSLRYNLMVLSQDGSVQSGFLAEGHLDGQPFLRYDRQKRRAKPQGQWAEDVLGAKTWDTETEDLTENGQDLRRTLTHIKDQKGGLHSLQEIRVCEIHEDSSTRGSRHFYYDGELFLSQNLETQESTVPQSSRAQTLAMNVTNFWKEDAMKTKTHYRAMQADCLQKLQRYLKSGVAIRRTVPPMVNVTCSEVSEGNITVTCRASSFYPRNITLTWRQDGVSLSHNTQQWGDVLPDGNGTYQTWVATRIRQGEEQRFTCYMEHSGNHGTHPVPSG

T3: MICA*001 expressed at the cell surface (human, UniProt Q29983 24-297)
T3 sequence: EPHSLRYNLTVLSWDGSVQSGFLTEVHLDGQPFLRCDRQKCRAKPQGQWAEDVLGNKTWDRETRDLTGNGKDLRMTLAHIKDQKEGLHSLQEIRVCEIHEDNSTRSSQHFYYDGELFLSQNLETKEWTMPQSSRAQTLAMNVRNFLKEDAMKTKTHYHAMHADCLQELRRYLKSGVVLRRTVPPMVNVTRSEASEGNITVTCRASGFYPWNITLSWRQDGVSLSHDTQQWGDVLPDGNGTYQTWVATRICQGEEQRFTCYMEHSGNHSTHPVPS

T4: MICA*007 expressed at the cell surface (human, UniProt Q29983 24-297)
T4 construct: also called C1R-MICA*007; C1R-MICA*07
T4 chain: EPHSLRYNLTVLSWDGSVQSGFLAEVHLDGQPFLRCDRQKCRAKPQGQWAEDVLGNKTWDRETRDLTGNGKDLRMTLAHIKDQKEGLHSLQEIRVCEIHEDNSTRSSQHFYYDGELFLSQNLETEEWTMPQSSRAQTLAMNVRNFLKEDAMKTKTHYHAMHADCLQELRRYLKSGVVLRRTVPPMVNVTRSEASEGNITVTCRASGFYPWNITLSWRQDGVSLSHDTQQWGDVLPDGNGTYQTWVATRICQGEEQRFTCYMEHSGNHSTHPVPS

T5: MICA*008 expressed at the cell surface (human, UniProt Q29983 24-297)
T5 construct: also called C1R-MICA*008; C1R-MICA*08
T5 chain: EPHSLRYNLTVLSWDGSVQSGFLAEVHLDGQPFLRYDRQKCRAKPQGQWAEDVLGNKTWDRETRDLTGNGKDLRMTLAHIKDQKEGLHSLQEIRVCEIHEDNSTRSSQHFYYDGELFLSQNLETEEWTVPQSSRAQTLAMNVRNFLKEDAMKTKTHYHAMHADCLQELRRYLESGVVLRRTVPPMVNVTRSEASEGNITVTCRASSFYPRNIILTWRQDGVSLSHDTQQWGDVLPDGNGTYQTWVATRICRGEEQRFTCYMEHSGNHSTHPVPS


Columns and labels:
MICA*001-BirA = target: T1, MICA*001-BirA; assay: SPR single cycle kinetics, monovalent mean KD at pH 7.4, antibody captured on Protein-G chip, MICA-BirA injected
Method: For monovalent affinity measurement, chimeric anti-MICA antibodies were captured onto a Protein-G chip.
Affinities were determined using single cycle kinetics (SCK). SCK cycles were as follows: Successive 120s injections at 30 μl/min of 5 serial dilutions (0.01 to 100 nM) of MICA-His or MICA-BirA in ascending order (or of buffer for the blank injections to be subtracted during the analysis). After the last concentration is injected, complex is left to dissociate for 600s before regeneration by a 10s injection of appropriate regeneration buffer at 40 μl/min. After the regeneration, chip is left to stabilise for 60s in running buffer. Curves are fitted using Biacore T100 Evaluation software.

[1] = target: T2, MICB-Fc (R&D Systems 1599-MB); assay: SPR, antibody at 10 µg/ml injected over immobilized MICB-Fc
Method: For cross-binding study, the human ULBP-1-Fc (R&D systems*), MICB-Fc (*), ULBP-2-Fc (*) and ULBP-3-Fc (*) recombinant proteins were covalently immobilized respectively on the flow cell one to four of a CM5 sensorchip. Anti-MICA antibodies (at a constant concentration of 10 μg/ml) were injected for 2 minutes at a flow rate of 10 μl/min onto the four flow cells in parallel. After each cycle, Sensorchip was regenerated by a five second injection of appropriate regeneration buffer.

[2] = target: T3, MICA*001 expressed at the cell surface; assay: cell-based or functional assay
[3] = target: T4, MICA*007 expressed at the cell surface; assay: flow cytometry on C1R transfectant cells, 4-parameter logistic fit
[4] = target: T5, MICA*008 expressed at the cell surface; assay: as above

| Kd (MICA*001-BirA) [µM] | binding result [1] | CDC: EC50 of the increase in dead (7-AAD positive) Raji-MICA*01 cells with human complement [2] [mg/L] | EC50 [3] [mg/L] | EC50 [4] [mg/L] | Binder |
| --- | --- | --- | --- | --- | --- |
| 0.0089 | binds | 1.01 | 1.23 |  | CHG1-M-MIA-6E4 (antibody, V domains shown, also called chimeric anti-MICA 6E4) VH: EVQLVESGGALVKPGGSLKLSCAASGFTFSYYAMSWVRQTPEKRLEWVATISRGGNYIYYTDSVKGRFTISRDNAKNTLYLQMTSLRSEDTAMFYCASISDYDGAWLAYWGQGTTLTVSS VL: DVLMTQTPLSLPVSLGDQASISCRSSQSIIHTNGNTYLEWYLQKPGQSPKLLIYKISNRFSGVPDRFSGSGSGTDFTLKISRVEAEDLGVYYCFQGSHVPWTFGGGTKLEIKR |
| 0.0115 | binds |  |  |  | CHG1-M-MIA-16A8 (antibody, V domains shown, also called CHG1-M-MIA2-16A8; chimeric anti-MICA 16A8) VH: EVQLVESGGGLVKPGGSLKLSCAASGFTFSRYAMSWVRQTPEKRLEWVATIFSGGSYTYYPDSVKGRFTISRDNANNTLYLQMSSLKAEDTAMYFCARPNWERTFDYWGQGTTLTVSS VL: not shown |
| 0.04 |  | 0.97 | 0.4 | 0.13 | CHG1-M-MIA-20C6 (antibody, V domains shown, also called chimeric anti-MICA 20C6) VH: QITLKESGPGILKPSQTLSLTCSFSGFSLSTSGMGVGWIRQPSGKGLEWLAHIWWDDDKYYNPSLKSQLTISKDTSRNQVFLRITSVDTADTATYYCARRTQGYFDYWGQGTTLTVSS VL: DIVMTQSPATLSVTPGDRVSLSCRASQSISDYLHWYQQKSHESPRLLIKYASQSISGIPSRFSGSGSGSDFTLSINSVEPEDVGVYYCQNGHSFPWTFGGGTKLEIKR |
